Reference: a protein production outcome set (Wang et al. 2014)

Test: label from the status in PepcDB records

| Sequence | protein production |
| --- | --- |
| MSDLAMANPAPERTVMQHVRPLPYEADFTGFLSNTVAPRWMEALRIQRMRTCFPHFDSGAPQHLCIITETTVRYRKPVRYSDAIVGKAWLQSARYSRWIIAFSFAFEFSGLPAFEGRQAGTFIDPQTHLPLPIPASLRLPADH | failed |
| MSDLSQLIVAPILLPLITAAIMLLLGEKHRHIKARLNLLSTFSGLAIAACLLLWVRTQGQAASIGVYLPGNWPAPFGIVLVVDHLSALLLTLTGVIGFSALLFARARWDGAGASFHALFQIQLMGLYGAFLTADLFNLFVFFEVLLAASYGLLLHGSGRARVRAGLHYIAINLFASSLFLIGAAMLYGVTGTLNMADLALKIPLVPEADRGLLHAGAAILAMAFLVKAGIWPLNFWLVPAYASASAPVAALFAIMTKVGLYAVLRLWTLLFSGQAGASAHFGGEWLVYGGLVTLAVAAVSILAAQRLERMAALSILVSAGTLLGAVGFAQAALTGAALFYLVNSTLALCALFLLAELVERSRSANEAPLDEEEDAMPPPLESLHPPKGINLDDEQQVVIGQIIPWTMAFLGLSFIACALLIIGMPPLSGFVGKLNLISALFNPLGLGVPAEQPLSAAGWGLVALLILSGLASLIAFGRVGIQRFWKPEERPSPVLRRYECLPIVILLGLCLILSFKAEPLLRYTQDTAASLQAPDAYIKAVMAAQPIPGPTSRDVQVQP | failed |
| MSDLTFNKIAGGVLLTGLVIFGLREASSIVFSKPEVEKAGYEIAVQEESAGGAAVVESLPDWNAVLTPANVAAGQAVAAKCAACHKFDASNANGTGPGLWDVVGRKPAAHADFNYSTGMKEFAAKTPVWDYDHLYEFLKAPGKYVSGTNMTFVGLKKQEDRIAMIAYMHSLGSKLPVPPPRPVAAPAPAEGAAPAAEGAAPAAEGAAPAAAGAAPAAPAAAAPAAPKA | failed |
| MSDLVKIRDVSLSTPYVSVIGKITGIHKKEYESDGTTKSVYQGYIEDDTARIRISSFGKQLQDSDVVRIDNARVAQFNGYLSLSVGDSSRIESVNVNIPLEHHHHHH | not failed |
| MSDLVSYHLDDGVATLTLNNGKVNAISPDVIIAFNAALDQAEKDRAIVIVTGQPGILSGGYDLKVMTSSAEAAINLVAQGSTLARRMLSHPFPIIVACPGHAVAKGAFLLLSADYRIGVAGPFSIGLNEVQIGMTMHHAGIELARDRLRKSAFNRSVINAEMFDPEGAMAAGFLDKVVSVEELQGAALAVAAQLKKINMNAHKKTKLKVRKGLLDTLDAAIEQDRQHML | not failed |
| MSDNKPFGGSFGSNGGQYATTVQYGGTAAAPAKVSLGDTPAAAPAGDVIKDTTTAAFAADVIQESRRQPVLVDFWAPWCGPCKQLTPQLEKAVRAAGGKVKLVKMNIDDHPSIAGQLGIQSIPAVIAFKDGQPVDGFMGAIPESQIAEFITKVGGKGNGAPAVAEALAAATEAREAGDMQTAADIFDAILAQAPETIEAIAGLGELLFEAGDTEGAEALLATAPEAKKDAPVLAALRAKMALAAQAAELGNPAEFERRLAENPKDHQARFDLAMIQNARGERTAAADNLLAIIKADRGWNEDGARTQLLQFFEAWGMTDEATLAARRKLSALLFS | failed |
| MSDPLTAQEQHKRRQAVRELMPRTPFIGGLGIVFERYEPDDVVIRLPFRTDLTNDGTYFHGGVIASVMDTAGAAAAWSNHDFDRGTRAATVAMSIQYTGAAKRCDLLCHARTARRRKELTFTEITATDPDGNIVAHAVQTYRIVLEHHHHHH | failed |
| MSDPSPIPARGRIASGGLVFLTVTTVAWGLSWPVTKYLISQWPPLPLRGLTGIAGSLALFGYAALRGDSLAVPRDQRLRLVISAFFNVTLWMAVMGLALLWLPAGETAVIAYTMPVWTALLAWPLLGERLTLRRVAALALAFGGIAALMGAAGFAASMTKLPGILLALTGALGFALGTIFLKRFPIALPGATSAAWQIGLGCIPVAVIGLAFEIPHVSVLTPLGWAGLVYLVVIQFCIAYVCWFAALQRLPASVAAIGTMATPVIGVVASAVALHEPLGVGQIAALVMTLTGVALATRS | failed |
| MSDSTLTGNAPVRRNITRKNVIIGLLLLLFVLIALWCHGRPGSELGLLEFTPLVALAILSLIGVDIVLAVISSIIIAMIMTSTGLPEMGTMLAKSTGSFIATVGLIIMLGAGVGEVATRTGAAVELVKFVVHRIGLSSQTRVKFGIVASSILICGSLGTMAGGNAIIVAVIIPVAAAVRLTPPTVAALMMTAGSVGLFTGPFTPSTVTILSLGGLSYPDYLLYVGLPMSAVTLLAGWVMAGRIQKMTEGKLRYDVDLAEKPQEDLSAAQQRRRKLSALAFAATIIVMAIVGVVIKAGFSFAIIVMLLVALMTGLVGGLRPTQILQALYHGCGRLVWMFILYWLYNPILELMDGLHAYQGLLEYTQPLLEGISPAWLCFSIFAFNIIGHVPGAAVAQMTFTHKIFGPMLMAAGVPPQGTTAVLLASSQVDWFGPFPSSDMFGQMGLAQSTHLKYMLYNGWAIVVANIILFALLFQILV | failed |
| MSDTLYIKMDQAVEITKKQVTVGDVAKLQCKNKNITNRLKSMKLLEDTTKGKKRYIVSIMKIIEMADQTFQNVDIQNIGETECVVEFKTPKKDDGPM | not failed |
| MSDVYNNEAFFKQYMKRRYRENSPNELIEKPAFFQLIGDVKGKKILDLGCGDAIFGKELLEKDCHSYTGIEGSELMYEKAKKQLENKNGIVHFLNLKDYTYPPATFDLVTSRLALHYIEHLPIIFQNVYETLKTNGTFTFSVQHPVITSSFESLQTSGKRTSWLVDDYFKTGKRVEPWIDQKVIKYHRTTEEYFTLLQQAGFTITNLKEATPNQTYFQSAEEYERRLRIPLFLLFSCRKLEHHHHHH | failed |
| MSDWNIDQAEELYGVNRWGAGYFSIGENGNIQIRPNHRLPDVTIDMKEVVDEIISEGIQFPAVIRFHDILRSQVEIINETFGKQIEEANYQGQYCGVFPIKVNQMREVVEEIMDAGEPYNYGLEAGSKPELMAVMAYNDNPEALTILNGYKDKDYLTLALLGRQLKRKMIIVIEKFSELEMLIPLAKQMGVKPMIGLRSKMMVKSSGKWAGSSGDRAKFGLSIAEILNVIERLREEDMLHCAKLLHFHIGSQLSDIRKIKEAVNEGARLYAKLVLEGMPLEYLDIGGGLGIDYDGTSTTNDSSRNYSTEEYVADVVWGVKQICDLEKVPHPNLVSESGRAMTAHHSCVVTNIVGEMKPAGTQYDISASSDEHILVKNMRELHSSGDQFHPQERYNDAAGYKQNAYEAFKLGILSLNEMAKLDTMYWQILADIHHSLDKDTYVMQELEELEDMLASQYLCNFSVFQSAADTWAIGQVLPVVPISRLNEQPEVRCSIVDITCDSDGKLSKYIEGTDISDHIPMHNLRKGEDYHVGLFLTGAYQDVMGDMHNLFGRLTEVHVYCHDDEPGDFYIEEVVPGTSAEKVLQTMQYNTEYMAKTVKKQIDRQVRKGSLAPREGVRWTNFYEHCLAGSTYLRVE | failed |
| MSEANSGPGRVTREQRGHLFLIGLDRAGKRNAFDSAMLADLALAMGEYERSEESRCAVLFAHGEHFTAGLDLMELAPKLAASGFRYPDGGVDPWGVVQPRRSKPLVVAVQGTCWTAGIELMLNADIAVAARGTRFAHLEVLRGIPPLGGSTVRFPRAAGWTDAMRYILTGDEFDADEALRMRLLTEVVEPGEELARALEYAERIARAAPLAVRAALQSAFQGRDEGDDAALSRVNESLAALIGSEDVREGVLAMV | not failed |
| MSEDAWKVNLIGNDEVHDLYTIVGNAAKQSMARDTDPMVSTILAYEGDWRKVFKRNTMTTFYGSKGFGMAQQHMDDLMEPLSREVMQKKRAKHPFGQTRKEHHAASRLLAAHAAAAIKGEIPLAIKAMEFIQKLSAMMAHEGKPLEWTTPIGLPWSNRYHDPVTERVNLWMHDHGVRRPFRPVVADGYKKTINKNHSVNGSAPNFVHALEHHHHHH | failed |
| MSEDSELIEQVIEQPDSLIISPPSDSSSSSYNHIQPFVYLESTATTQTNHNVLLILNQKITIDLISLWKKCEIIVCADGGANSLYEYFNDNNHHHHHENLQRSDYIPDYIVGDFDSISPDVKTYYESHGSKIIRQSSQYYNDFTKSIHCIQLHYQLNHTKENWFESIDEVDGLAKLWNGLNNSSDVVVDIDITIYVLNAIGGRFDQTVQSINQLYIMNEDYPKVTVFFITTNDIIFLLKKGVNYISYKNRLMFHKDNGSSPTPTCGLLPLSNKTPIILNSYGLKYDMRNWKTEMLGQVSSSNRISGETGFIVECSDDIVMNIEIDV | not failed |
| MSEEFDESEIIFSDNYFPIRRREDGNEKENNRPVDFRENSERVWNKSSRRSKTTPLPSAVTAFSSSLPVNIPMRRYSTEEEYSDDDGGRKMIPPHLIVGRRMEGGQMAFSVCTGNGRTLKGRDLSRVRNSVLKLTGFLEA | failed |
